From patent US20130116201, “USE OF PEPTIDES AS TRANSPORTERS […] FOR THE INTERNALIZATION OF MOLECULES OF […] INTO TARGET CELLS” (UNIVERSITE JOSEPH FOURIER, published 2013)

Experiments:
ZEBRA Z4 = ZEBRA Z4 (Epstein-Barr virus, UniProt P03206 SEQ:1-105); experiment: EMSA; efficiency almost equal to full-length ZEBRA; poly(dI-dC), 4 C; conditions: tags: N-terminal His6 (pET15b); chain copies: 2; label: biotin
ZEBRA Z6 = ZEBRA Z6 (Epstein-Barr virus, UniProt P03206 SEQ:1-75); experiment: as above; conditions: tags: N-terminal His6 (pET15b); chain copies: 2; label: biotin
ZEBRA full-length (Z-FL) = ZEBRA full-length (Z-FL) (Epstein-Barr virus, UniProt P03206 P03206:1-245); experiment: EMSA; poly(dI-dC), 1 mM DTT, 4 C; conditions: tags: N-terminal His6 (pET15b); chain copies: 2; label: biotin
ZEBRA Z3 = ZEBRA Z3 (Epstein-Barr virus, UniProt P03206 P03206:1-140); experiment: EMSA; neither DIM nor DB domain; conditions: tags: N-terminal His6 (pET15b); label: biotin
ZEBRA Z2 = ZEBRA Z2 (Epstein-Barr virus, UniProt P03206 P03206:1-170); experiment: EMSA; neither DIM nor DB domain; conditions: tags: N-terminal His6 (pET15b); label: biotin
ZEBRA Z5 = ZEBRA Z5 (Epstein-Barr virus, UniProt P03206 P03206:140-195); experiment: EMSA; no dimerization domain; conditions: tags: N-terminal His6 (pET15b); label: biotin
ZEBRA Z7 = biological target: T1, ZEBRA Z7 (Epstein-Barr virus, UniProt P03206 P03206:170-195); experiment: EMSA; no dimerization domain; conditions: tags: N-terminal His6 (pET15b); label: biotin
T1 chain: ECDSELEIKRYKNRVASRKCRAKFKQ

ZEBRA Z8 = ZEBRA Z8 (Epstein-Barr virus, UniProt P03206 P03206:195-245); experiment: EMSA; dimerization domain without DNA-binding domain; conditions: tags: N-terminal His6 (pET15b); label: biotin
ZEBRA Z8, sequence (P03206 195-245, one chain of several): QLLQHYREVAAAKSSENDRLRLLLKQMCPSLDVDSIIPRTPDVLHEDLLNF

ZEBRA full-length (Z-FL), sequence (P03206 whole entry, the tested form may be a part, one chain of several): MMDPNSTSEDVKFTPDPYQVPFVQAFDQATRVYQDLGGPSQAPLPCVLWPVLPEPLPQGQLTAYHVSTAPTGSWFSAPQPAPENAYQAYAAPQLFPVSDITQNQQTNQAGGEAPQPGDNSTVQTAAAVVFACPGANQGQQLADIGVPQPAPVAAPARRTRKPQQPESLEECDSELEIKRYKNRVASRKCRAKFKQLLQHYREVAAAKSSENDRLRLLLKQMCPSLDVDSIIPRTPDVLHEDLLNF
ZEBRA Z3, sequence (P03206 1-140, one chain of several): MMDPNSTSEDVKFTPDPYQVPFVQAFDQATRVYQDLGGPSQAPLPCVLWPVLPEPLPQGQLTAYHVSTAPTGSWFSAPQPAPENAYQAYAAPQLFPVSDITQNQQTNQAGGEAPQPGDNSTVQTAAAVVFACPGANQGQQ
ZEBRA Z6, sequence (P03206 171-245): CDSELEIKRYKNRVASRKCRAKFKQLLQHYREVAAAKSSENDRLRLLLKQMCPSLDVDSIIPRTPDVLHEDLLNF
ZEBRA Z2, sequence (P03206 1-170, one chain of several): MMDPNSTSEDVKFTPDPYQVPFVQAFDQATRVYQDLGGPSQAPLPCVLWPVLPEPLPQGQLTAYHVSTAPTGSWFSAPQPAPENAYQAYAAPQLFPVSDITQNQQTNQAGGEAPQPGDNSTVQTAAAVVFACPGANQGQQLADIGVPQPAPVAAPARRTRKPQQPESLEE
ZEBRA Z4, sequence (P03206 141-245): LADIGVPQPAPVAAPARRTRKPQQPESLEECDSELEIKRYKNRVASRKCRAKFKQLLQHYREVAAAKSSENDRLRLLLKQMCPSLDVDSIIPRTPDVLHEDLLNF

B1: AP-1 probe (dsDNA)
DNA 1: AGCACTGACTCATGAAGT
DNA 2: TACTTCATGAGTCAGTGCT
B1: binds (ZEBRA Z4); binds (ZEBRA Z6); binds (ZEBRA full-length (Z-FL)). B1: no binding (ZEBRA Z3); no binding (ZEBRA Z2); no binding (ZEBRA Z5). B1: no binding (ZEBRA Z7); no binding (ZEBRA Z8).
